Measurements reported in publication PMC3472031.
Several values for one entry are separate records, joined by “and”; a condition that tells them apart may be missing. Identical values can stand only once.

B1: N-WASP GBD GBD, O00401 (protein)
chain: KRLTKADIGTPSNFQHIGHVGWDPNTGFDLNNLDPELKNLFDMCGISEAQLKDRETSKVIYDFIEKTGGVEAVKNELRR
B2: IRTKS SH3 SH3, Q9UHR4 (protein)
chain: LNMMKKQKVKTIFPHTAGSNKTLLSFAQGDVITLLIPEEKDGWLYGEHDVSKARGWFPSSYTKLLEENET

How the values were obtained:
[1] = biological target: EspFU R475 R475 (fifth 47-residue repeat) (Escherichia coli O157:H7), P0DJ88; test: ITC
[2] = biological target: EspFU R2 20-residue peptide from second repeat (Escherichia coli O157:H7), P0DJ88; test: ITC

Row | Binder | Kd [1] | Kd [2] [nM]
1 | B1 | 40 nM and 70 nM | 
2 | B2 |  | 1100
